Test results taken from the Immune Epitope Database (IEDB).

Tests used:
HLA-A*02:01 [1] = assay: IEDB peptide-MHC binding, cellular MHC/competitive/fluorescence; ≥ and ≤ were set here for values at or beyond the usual limits of such assays
HLA-A*02:02 [2] = assay: as above
HLA-A*02:03 = assay: as above
HLA-A*02:06 [3] = assay: IEDB peptide-MHC binding, purified MHC/competitive/radioactivity; ≥ and ≤ were set here for values at or beyond the usual limits of such assays
HLA-A*68:02 [4] = assay: as above
HLA-A*68:02 [5] = assay: IEDB peptide-MHC binding, cellular MHC/competitive/fluorescence; ≥ and ≤ were set here for values at or beyond the usual limits of such assays
HLA-A*02:01 [6] = assay: IEDB peptide-MHC binding, purified MHC/competitive/radioactivity; ≥ and ≤ were set here for values at or beyond the usual limits of such assays
HLA-A*02:06 [7] = assay: IEDB peptide-MHC binding, cellular MHC/competitive/fluorescence; ≥ and ≤ were set here for values at or beyond the usual limits of such assays
HLA-A*02:02 [8] = assay: IEDB peptide-MHC binding, purified MHC/competitive/radioactivity; ≥ and ≤ were set here for values at or beyond the usual limits of such assays
[9] = source organism: Influenza A virus
[10] = source organism: Vaccinia virus WR
[11] = source organism: Mammarenavirus choriomeningitidis
[12] = source organism: Hepacivirus hominis

Sequence | IC50 (HLA-A*02:01 [1]; [10]) | IC50 (HLA-A*02:02 [2]; [10]) | IC50 (HLA-A*02:03; [10]) | IC50 (HLA-A*02:06 [3]; [10]) | IC50 (HLA-A*68:02 [4]; [10]) | IC50 (HLA-A*68:02 [5]; [10]) | further results
NTVSSFQV | – | – | – | – | – | – | IC50 (HLA-A*02:01 [1]; [9]): 52.7 µM; IC50 (HLA-A*02:02 [2]; [9]): ≥ 70 µM; IC50 (HLA-A*02:03; [9]): 60.1 µM; IC50 (HLA-A*02:06 [3]; [9]): 4480 nM; IC50 (HLA-A*68:02 [4]; [9]): 566 nM
TVDFTDCRT | 33.6 µM | 9.68 µM | 27 µM | 339 nM | 612 nM | – | –
EVRYIDITNI | 8.61 µM | 12.9 µM | 5.81 µM | 4340 nM | 41 nM | – | –
FSLGAAVKA | – | – | – | – | – | – | IC50 (HLA-A*02:01 [1]; [11]): 11 µM; IC50 (HLA-A*02:02 [2]; [11]): 6.47 µM; IC50 (HLA-A*02:03; [11]): 13.4 µM; IC50 (HLA-A*02:06 [3]; [11]): 327 nM; IC50 (HLA-A*68:02 [4]; [11]): 1780 nM
STTGEWPLI | 8.57 µM | 21.1 µM | 44.5 µM | 1240 nM | 602 nM | – | –
VILPDKIDGL | – | 8.09 µM | 10.8 µM | 240 nM | – | ≥ 70 µM | IC50 (HLA-A*02:01 [6]; [10]): 1780 nM
ITLILSNKL | 6.79 µM | 5.11 µM | 17.1 µM | 396 nM | – | 8.73 µM | –
HVLLPFYET | – | 16.4 µM | 18.6 µM | 1740 nM | 924 nM | – | IC50 (HLA-A*02:01 [6]; [10]): 2490 nM
CAVNTPVSM | 49.1 µM | 6.27 µM | 15.7 µM | 1520 nM | 502 nM | – | –
LIFNVKSKLL | 25.5 µM | – | 6.69 µM | – | – | 32.6 µM | IC50 (HLA-A*02:06 [7]; [10]): 28.5 µM; IC50 (HLA-A*02:02 [8]; [10]): 2390 nM
YTGGYDVSL | – | – | 6.05 µM | – | – | 6.67 µM | IC50 (HLA-A*02:06 [7]; [10]): 20.3 µM; IC50 (HLA-A*02:01 [6]; [10]): 3740 nM; IC50 (HLA-A*02:02 [8]; [10]): 1990 nM
IQYRQQLELA | ≥ 70 µM | – | 8.47 µM | – | – | 12.9 µM | IC50 (HLA-A*02:06 [7]; [10]): ≥ 70 µM; IC50 (HLA-A*02:02 [8]; [10]): 4320 nM
KVIKLVKSLV | 24.9 µM | 14.3 µM | 13.4 µM | 2140 nM | – | 16.2 µM | –
QAIMDKNIIL | – | – | – | – | – | – | IC50 (HLA-A*02:03; [9]): 11.4 µM; IC50 (HLA-A*02:06 [7]; [9]): 13.4 µM; IC50 (HLA-A*68:02 [5]; [9]): 8.92 µM; IC50 (HLA-A*02:01 [6]; [9]): 1020 nM; IC50 (HLA-A*02:02 [8]; [9]): 937 nM
IAGIILLIL | – | – | 52.9 µM | – | – | 8.8 µM | IC50 (HLA-A*02:06 [7]; [10]): ≥ 70 µM; IC50 (HLA-A*02:01 [6]; [10]): 3220 nM; IC50 (HLA-A*02:02 [8]; [10]): 4190 nM
FTDCRTIDAI | – | 9.44 µM | 12.8 µM | 751 nM | 171 nM | – | IC50 (HLA-A*02:01 [6]; [10]): 1840 nM
DTMRIYCSL | – | 5.84 µM | 5.46 µM | 2920 nM | 1.3 nM | – | IC50 (HLA-A*02:01 [6]; [10]): 3400 nM

Sequence | IC50 (HLA-A*02:01 [1]; [10]) | IC50 (HLA-A*02:02 [2]; [10]) | IC50 (HLA-A*02:03; [10]) | IC50 (HLA-A*02:06 [3]; [10]) | IC50 (HLA-A*68:02 [4]; [10]) | IC50 (HLA-A*68:02 [5]; [10]) | further results
VVIVENDNV | 34.4 µM | 13.2 µM | 38 µM | 4300 nM | 967 nM | – | –
KTEHCDDFM | 16.1 µM | 6.5 µM | 18.1 µM | 2520 nM | – | ≥ 70 µM | –
IVPDADPPI | – | 5.08 µM | 10.7 µM | 274 nM | 1520 nM | – | IC50 (HLA-A*02:01 [6]; [10]): 743 nM
RQLTSNVDV | 8.98 µM | 50.8 µM | 9.76 µM | 170 nM | – | 18.8 µM | –
VIVPDIKLDA | 22.6 µM | 33.5 µM | 21.4 µM | 883 nM | – | ≥ 70 µM | –
LLLGLLLLCV | – | – | – | – | – | – | IC50 (HLA-A*02:02 [2]; [12]): 16.9 µM; IC50 (HLA-A*02:03; [12]): 10.3 µM; IC50 (HLA-A*68:02 [5]; [12]): 57.9 µM; IC50 (HLA-A*02:01 [6]; [12]): 2180 nM; IC50 (HLA-A*02:06 [3]; [12]): 5000 nM
KVEKYLPEVI | 8.62 µM | 12.1 µM | 12.4 µM | 734 nM | – | ≥ 70 µM | –
SMGVYQILA | – | – | – | – | – | – | IC50 (HLA-A*02:03; [9]): 7.05 µM; IC50 (HLA-A*02:06 [7]; [9]): 10.4 µM; IC50 (HLA-A*68:02 [5]; [9]): 16.8 µM; IC50 (HLA-A*02:01 [6]; [9]): 978 nM; IC50 (HLA-A*02:02 [8]; [9]): 518 nM
IVPDIKLDA | 42.2 µM | 6.39 µM | 15.7 µM | 3430 nM | 2890 nM | – | –
QTVDFTDCRT | 40.1 µM | 30.5 µM | 54.3 µM | 3640 nM | 33 nM | – | –
TTENAAYQV | 29.6 µM | ≥ 70 µM | 51.3 µM | 442 nM | 187 nM | – | –
LVIRNEVNDT | 12.6 µM | 5.5 µM | 15.2 µM | 2170 nM | 854 nM | – | –
NVLSIAPI | – | – | – | – | – | – | IC50 (HLA-A*02:01 [1]; [9]): 8.52 µM; IC50 (HLA-A*02:02 [2]; [9]): 39.7 µM; IC50 (HLA-A*02:03; [9]): 17.4 µM; IC50 (HLA-A*02:06 [3]; [9]): 2340 nM; IC50 (HLA-A*68:02 [4]; [9]): 1330 nM
LALWDSNFFT | – | 11 µM | 19.9 µM | 1250 nM | – | ≥ 70 µM | IC50 (HLA-A*02:01 [6]; [10]): 815 nM
PLPCQLMYAL | 13 µM | – | 8.71 µM | – | – | 31.3 µM | IC50 (HLA-A*02:06 [7]; [10]): 9.81 µM; IC50 (HLA-A*02:02 [8]; [10]): 163 nM
SAGFTATICL | 10.4 µM | 6.9 µM | 20.1 µM | 2410 nM | 3880 nM | – | –
